Reference: paper PMC6426973, “Oligomeric self-association contributes to E2A-PBX1-mediated oncogenesis”

Target: T1, E2A-PBX1 ΔPBC-B (MBP fusion) (UniProt P15923 1-483+P40424:232-430, internal_change)
T1 sequence: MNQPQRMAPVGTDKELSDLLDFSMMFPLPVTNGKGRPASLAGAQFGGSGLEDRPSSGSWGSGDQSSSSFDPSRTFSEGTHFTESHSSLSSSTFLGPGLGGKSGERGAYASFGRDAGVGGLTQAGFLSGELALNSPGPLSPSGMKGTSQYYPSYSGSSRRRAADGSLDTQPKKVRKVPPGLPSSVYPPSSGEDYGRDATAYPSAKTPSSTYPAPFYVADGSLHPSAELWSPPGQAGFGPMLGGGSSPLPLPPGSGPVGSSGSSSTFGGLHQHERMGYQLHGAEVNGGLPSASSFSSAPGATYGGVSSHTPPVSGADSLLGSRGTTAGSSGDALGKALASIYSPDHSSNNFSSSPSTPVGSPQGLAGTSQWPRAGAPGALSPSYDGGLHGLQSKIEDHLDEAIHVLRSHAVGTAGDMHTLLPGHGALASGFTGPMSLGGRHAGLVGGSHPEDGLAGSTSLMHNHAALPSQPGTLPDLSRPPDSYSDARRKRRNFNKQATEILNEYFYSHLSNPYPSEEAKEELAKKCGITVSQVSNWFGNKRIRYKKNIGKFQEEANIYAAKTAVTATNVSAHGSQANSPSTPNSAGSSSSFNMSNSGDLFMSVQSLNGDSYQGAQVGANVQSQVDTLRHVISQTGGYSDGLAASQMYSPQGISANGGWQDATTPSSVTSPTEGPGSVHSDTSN
Assay: EMSA; LightShift Chemiluminescent EMSA kit (manufacturer's conditions), room temperature 20 min, 5% TBE gel in 0.5X TBE; salt and pH not stated
Settings: protein: recombinant; tags: MBP; label: biotin (end label); blunt

B1: PBX1 consensus site oligonucleotide (dsDNA)
DNA 1: TGATTGATTGATTGAT
DNA 2: ATCAATCAATCAATCA
Q: Does B1 bind?
A: no binding
